Results published in publication doi:10.1101/2025.11.19.685371v1 (bioRxiv, 2025).

Tests used:
Thioflavin T = assay type: physicochemical; details: 2.5 μM Aβ in PBS, 20 μM ThT, room temperature, shaking 100 rpm between reads
[1] = FCS size characterization; assay type: physicochemical; details: individual 30 s FCS measurements, 10 per sample; three preparations
[2] = tested on: immortalized human cortical astrocytes; test: Cell viability of astrocytes; assay type: cell-based; details: 4 μM Aβ, 24 hours, 37°C; three biological replicates

Substance | ThT aggregation t1/2 (Thioflavin T) [min] | CV of sizes within the same preparation [1] [%] | toxicity of Aβ to astrocytes (cell viability) [2]
Aβ monomers: Aβ42 peptide with methionine as N-terminal residue, recombinantly expressed in E. coli, SEC-purified aggregate-free monomer | 79 ± 8 |  | 
Aβ oligomers: stable pre-formed Aβ oligomers prepared by the protocol of Barghorn et al. with SDS |  | 17 ± 2 | significantly higher toxicity
